Experimental data published in the RNAGym collection of RNA variant scans (doi:10.7554/elife.90254).

B1: OR4K15 (parent)
chain: GUUAACGGUCAUAGGCCAUGGAAACUAGGAGCACCAUUUCGCUGCCAGUGAAGAAAUGAACAAAGAAAAUCUGGGCCAGGCAGGCAUCAAAAGAAAUAGUCUUGCGCUCAACCAGAAAGUCUGUAAUCAUUUUAAGGGUA

Variants of: B1
Test: self-cleavage, relative activity (ratio to wild type); higher = more cleavage; in vitro, sequencing; the parent is a self-cleaving ribozyme

Going from G31U A47G to A30G A96U, the self-cleavage rises from 1.05 to 1.72.

First: A30G A96G
Second: A30G A110G
The self-cleavage of the first is higher: 1.25 for the first, 0.15 for the second.

First: A33C U132C
Second: A33G U43C
The self-cleavage of the first is higher: 1.46 for the first, 0.71 for the second.

First: A33C A140U
Second: A33C U124G
The self-cleavage of the first is higher: 1.4 for the first, 1.02 for the second.

Going from G29U A59G to A30G A126U, the self-cleavage falls from 1.31 to 0.87.

First: A30G A126G
Second: A30U A51G
The self-cleavage of the first is lower: 1.23 for the first, 1.55 for the second.

First: A30G C45U
Second: G29A U97C
The self-cleavage of the first is lower: 1.06 for the first, 1.22 for the second.

A30U U72A and A30U U72C are the same in self-cleavage: 0.27 for the first, 0.27 for the second.

Going from A33U A98G to A30U A82G, the self-cleavage falls from 1.53 to 0.52.

First: A30U A91G
Second: A30U U127C
The self-cleavage of the first is higher: 1.35 for the first, 0.71 for the second.

First: A33G A111G
Second: G31U A111U
The self-cleavage of the first is lower: 0.02 for the first, 0.15 for the second.

First: C32G
Second: C32U
The self-cleavage of the first is lower: 1.25 for the first, 1.28 for the second.

Compared with C32A, G31U U102A is higher in self-cleavage: 1.2 for the first, 2.03 for the second.

First: C32U A86G
Second: A30C A33G
The self-cleavage of the first is lower: 1.82 for the first, 1.9 for the second.

First: A33G A54U
Second: A30C A116G
The self-cleavage of the first is higher: 1.04 for the first, 0.89 for the second.

Going from A30G U72A to A30G U72C, the self-cleavage falls from 0.36 to 0.24.

Going from A33U A90G to A33C A69G, the self-cleavage rises from 1.06 to 1.71.

First: A30U A114U
Second: A33C A89G
The self-cleavage of the first is lower: 0.11 for the first, 1.31 for the second.

Going from A30G A111G to A30G U133C, the self-cleavage rises from 0.05 to 1.8.

Compared with G29U A63G, G31U A54G is lower in self-cleavage: 2.9 for the first, 1.34 for the second.

First: A30U A59G
Second: A33G U70C
The self-cleavage of the first is higher: 0.34 for the first, 0.22 for the second.

Going from A33G A86U to C32U A51G, the self-cleavage rises from 0.87 to 1.88.

First: C32A U87C
Second: A30G A59U
The self-cleavage of the first is higher: 1.38 for the first, 1.18 for the second.

Compared with G31U A60G, A30G A89G is lower in self-cleavage: 1.37 for the first, 0.71 for the second.

First: A30G A89C
Second: A30G A89U
The self-cleavage of the first is lower: 0.8 for the first, 1.09 for the second.

Compared with C32A A56G, A30G A90G is higher in self-cleavage: 0.28 for the first, 1.37 for the second.

Compared with A30U U70C, A30U U70A is higher in self-cleavage: 0.71 for the first, 1.71 for the second.

Compared with A33G U102G, C32U U70C is higher in self-cleavage: 0.47 for the first, 0.69 for the second.

Going from A30C U108C to A33G U87C, the self-cleavage rises from 0 to 0.7.

Going from A33G U87A to A30C A56G, the self-cleavage rises from 0.66 to 1.27.

Compared with A30U A33G, A30G C101A is lower in self-cleavage: 0.69 for the first, 0.14 for the second.

First: A33U A126G
Second: A33U A126U
The self-cleavage of the first is lower: 1.4 for the first, 1.67 for the second.

First: A30G A68G
Second: A33U A68G
The self-cleavage of the first is higher: 1.49 for the first, 1.28 for the second.

First: G31U A129G
Second: G29C A96G
The self-cleavage of the first is higher: 1.78 for the first, 1.67 for the second.

First: A30G G44A
Second: A30G G79A
The self-cleavage of the first is higher: 1.15 for the first, 0.17 for the second.

Going from A33C U122C to A33C U122A, the self-cleavage rises from 1.09 to 1.61.

First: A30G G137A
Second: A30G G137U
The self-cleavage of the first is higher: 1.06 for the first, 0.71 for the second.

Compared with A30C U103G, A33C A126G is higher in self-cleavage: 0.01 for the first, 1.8 for the second.

Compared with G31A A69U, A30G A52G is lower in self-cleavage: 2.21 for the first, 1.13 for the second.

Compared with A33U C76G, G31A U132C is higher in self-cleavage: 0.17 for the first, 1.72 for the second.

First: A33U A51U
Second: G29A U139G
The self-cleavage of the first is higher: 0.89 for the first, 0.86 for the second.

Going from G29A U139C to A33C A47G, the self-cleavage falls from 2.53 to 1.05.
